Laboratory results as given in patent US20200032346.

Columns and labels:
[1] = target: HisTAG-EGFR^aa1-650, P00533
[2] = target: HisTAG-ΔEGFR N-terminusY88A, P00533
[3] = target: T1, mutant peptide 3 (FLKTIQEVAGAVLIALNTVER)
T1 chain: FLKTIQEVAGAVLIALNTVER

[4] = target: T2, peptide 1 (EVVLGNLEITYVQRNYDLSFL)
T2 chain: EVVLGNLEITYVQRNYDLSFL

[5] = target: T3, peptide 10 (QMDVNPEGKYSFGATCVKK)
T3 chain: QMDVNPEGKYSFGATCVKK

[6] = target: T4, peptide 11 (ATCVKKCPRNYVVTDHGSCVR)
T4 chain: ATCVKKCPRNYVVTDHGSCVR

[7] = target: T5, peptide 12 (SCVRACGADSYEMEEDGVRKC)
T5 chain: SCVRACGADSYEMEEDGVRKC

[8] = target: T6, peptide 13 (VIISGNKNLCYANTINWKKLF)
T6 chain: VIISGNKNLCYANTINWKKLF

[9] = target: T7, peptide 14 (GPDNCIQCAHYIDGPHCVKTC)
T7 chain: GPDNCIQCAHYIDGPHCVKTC

[10] = target: T8, peptide 15 (MGENNTLVWKYADAGHVCHLC)
T8 chain: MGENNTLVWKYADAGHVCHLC

[11] = target: T9, peptide 16 (VCHLCHPNCTYGCTGPGLEGC)
T9 chain: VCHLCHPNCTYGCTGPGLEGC

[12] = target: T10, peptide 2 (NLEITYVQRNYDLSFLKTIQE)
T10 chain: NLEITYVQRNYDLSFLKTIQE

[13] = target: T11, peptide 3 (FLKTIQEVAGYVLIALNTVER)
T11 chain: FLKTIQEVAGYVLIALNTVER

[14] = target: T12, peptide 4 (ENLQIIRGNMYYENSYALAVL)
T12 chain: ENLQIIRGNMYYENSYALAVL

[15] = target: T13, peptide 5 (NLQIIRGNMYYENSYALAVLS)
T13 chain: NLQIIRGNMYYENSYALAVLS

[16] = target: T14, peptide 6 (IRGNMYYENSYALAVLSNYDA)
T14 chain: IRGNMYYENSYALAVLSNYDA

[17] = target: T15, peptide 7 (NSYALAVLSNYDANKTGLKEL)
T15 chain: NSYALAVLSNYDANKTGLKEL

[18] = target: T16, peptide 8 (CKDTCPPLMLYNPTTYQMDVN)
T16 chain: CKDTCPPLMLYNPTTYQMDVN

[19] = target: T17, peptide 9 (PPLMLYNPTTYQMDVNPEGKY)
T17 chain: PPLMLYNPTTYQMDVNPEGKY

B1: GST-MAN2A1-FER (protein)
chain: MKLSRQFTVFGSAIFCVVIFSLYLMLDRGHLDYPRNPRREGSFPQGQLSMLQEKIDHLERLLAENNEIISNIRDSVINLSESVEDGPKSSQSNFSQGAGSHLLPSQLSLSVDTADCLFASQSGSHNSDVQMLDVYSLISFDNPDGGVWKQGFDITYESNEWDTEPLQVFVVPHSHNDPGWLKTFNDYFRDKTQYIFNNMVLKLKEDSRRKFIWSEISYLSKWWDIIDIQKKDAVKSLIENGQLEIVTGGWVMPDEATPHYFALIDQLIEGHQWLENNIGVKPRSGWAIDPFGHSPTMAYLLNRAGLSHMLIQRVHYAVKKHFALHKTLEFFWRQNWDLGSVTDILCHMMPFYSYDIPHTCGPDPKICCQFDFKRLPGGRFGCPWGVPPETIHPGNVQSRARMLLDQYRKKSKLFRTKVLLAPLGDDFRYCEYTEWDLQFKNYQQLFDYMNSQSKFKVKIQFGTLSDFFDALDKADETQRDKGQSMFPVLSGDFFTYADRDDHYWSGYFTSRPFYKRMDRIMESHLRAAEILYYFALRQAHKYKINKFLSSSLYTALTEARRNLGLFQHHDAITGTAKDWVVVDYGTRLFHSLMVLEKIIGNSAFLLILKDKLTYDSYSPDTFLEMDLKQKSQDSLPQKNIIRLSAEPRYLVVYNPLEQDRISLVSVYVSSPTVQVFSASGKPVEVQVSAVWDTANTISETAYEGNFGEVYKGTLKDKTSVAVKTCKEDLPQELKIKFLQEAKILKQYDHPNIVKLIGVCTQRQPVYIIMELVSGGDFLTFLRRKKDELKLKQLVKFSLDAAAGMLYLESKNCIHRDLAARNCLVGENNVLKISDFGMSRQEDGGVYSSSGLKQIPIKWTAPEALNYGRYSSESDVWSFGILLWETFSLGVCPYPGMTNQQAREQVERGYRMSAPQHCPEDISKIMMKCWDYKPENRPKFSELQKELTIIKRKLT
With B1 the “in vitro kinase assay, phosphorylation of the substrate” value [1] was “GST-MAN2A1-FER phosphorylated the recombinant HisTAG-EGFR^aa1-650 in an ATP dosage-dependent manner”, the “in vitro kinase assay, phosphorylation of the substrate” value [2] was “No phosphorylation was found when Y88 was mutated to alanine in EGFR N-terminus” and the “phosphorylation assay on synthetic peptide” value (shortened to “phosphorylation assay”) [3] was “mutant peptide was not phosphorylated by the fusion protein”. For the same protein, the “phosphorylation of HisTAG-ΔEGFR^aa1-650 by GST-MAN2A1-FER with an excessive amount of peptide” value [3] was “peptide 3, but not the mutant counterpart, partially blocked the phosphorylation of EGFR N-terminus by GST-MAN2A1-FER”, the “phosphorylation assay” value [4] was “only the sequence corresponding to FLKTIQEVAGYVLIALNTVER (peptide 3) in EGFR was phosphorylated by GST-MAN2A1-FER” and the “phosphorylation assay” value [5] was “only the sequence corresponding to FLKTIQEVAGYVLIALNTVER (peptide 3) in EGFR was phosphorylated by GST-MAN2A1-FER”. For the same protein, the “phosphorylation assay” value [6] was “only the sequence corresponding to FLKTIQEVAGYVLIALNTVER (peptide 3) in EGFR was phosphorylated by GST-MAN2A1-FER”, the “phosphorylation assay” value [7] was “only the sequence corresponding to FLKTIQEVAGYVLIALNTVER (peptide 3) in EGFR was phosphorylated by GST-MAN2A1-FER” and the “phosphorylation assay” value [8] was “only the sequence corresponding to FLKTIQEVAGYVLIALNTVER (peptide 3) in EGFR was phosphorylated by GST-MAN2A1-FER”. For the same protein, the “phosphorylation assay” value [9] was “only the sequence corresponding to FLKTIQEVAGYVLIALNTVER (peptide 3) in EGFR was phosphorylated by GST-MAN2A1-FER”, the “phosphorylation assay” value [10] was “only the sequence corresponding to FLKTIQEVAGYVLIALNTVER (peptide 3) in EGFR was phosphorylated by GST-MAN2A1-FER” and the “phosphorylation assay” value [11] was “only the sequence corresponding to FLKTIQEVAGYVLIALNTVER (peptide 3) in EGFR was phosphorylated by GST-MAN2A1-FER”. For the same protein, the “phosphorylation assay” value [12] was “only the sequence corresponding to FLKTIQEVAGYVLIALNTVER (peptide 3) in EGFR was phosphorylated by GST-MAN2A1-FER”, the “phosphorylation assay” value [13] was “only the sequence corresponding to FLKTIQEVAGYVLIALNTVER (peptide 3) in EGFR was phosphorylated by GST-MAN2A1-FER” and the “phosphorylation of HisTAG-ΔEGFR^aa1-650 by GST-MAN2A1-FER with an excessive amount of peptide” value [13] was “peptide 3, but not the mutant counterpart, partially blocked the phosphorylation of EGFR N-terminus by GST-MAN2A1-FER”. For the same protein, the “phosphorylation assay” value [14] was “only the sequence corresponding to FLKTIQEVAGYVLIALNTVER (peptide 3) in EGFR was phosphorylated by GST-MAN2A1-FER”, the “phosphorylation assay” value [15] was “only the sequence corresponding to FLKTIQEVAGYVLIALNTVER (peptide 3) in EGFR was phosphorylated by GST-MAN2A1-FER” and the “phosphorylation assay” value [16] was “only the sequence corresponding to FLKTIQEVAGYVLIALNTVER (peptide 3) in EGFR was phosphorylated by GST-MAN2A1-FER”. For the same protein, the “phosphorylation assay” value [17] was “only the sequence corresponding to FLKTIQEVAGYVLIALNTVER (peptide 3) in EGFR was phosphorylated by GST-MAN2A1-FER”, the “phosphorylation assay” value [18] was “only the sequence corresponding to FLKTIQEVAGYVLIALNTVER (peptide 3) in EGFR was phosphorylated by GST-MAN2A1-FER” and the “phosphorylation assay” value [19] was “only the sequence corresponding to FLKTIQEVAGYVLIALNTVER (peptide 3) in EGFR was phosphorylated by GST-MAN2A1-FER”.
